{"source": "paper PMC11997501", "about": "(Molecular Therapy, 2025)", "proteins": {"B1": {"name": "murine MLC1 (natural protein, mouse (endogenous in C57BL/6J brain), UniProt Q8VHK5 1-382, looked up)", "chain": "MTREGQFREELGYDRMPTLERGRQDAGRQDPGSYTPDSKPKDLQLSKRLPPCFSYKTWVFSVLMGSCLLVTSGFSLYLGNVFPSEMDYLRCAAGSCIPSAIVSFAVGRRNVSAIPNFQILFVSTFAVTTTCLIWFGCKLILNPSAININFNLILLLLLELLMAATVIISARSSEEPCKKKKGSISDGSNILDEVTFPARVLKSYSVVEVIAGVSAVLGGVIALNVEEAVSGPHLSVTFFWILVACFPSAIASHVTAECPSKCLVEVLIAISSLTSPLLFTASGYLSFSVMRVVEIFKDYPPAIKSYDVLLLLLLLLLLLQGGLNTGTAIQCVSFKVSARLQAASWDPQSCPQERPAGEVVRGPLKEFDKEKAWRAVVVQMAQ"}}, "target": "the molecule itself", "test": "western blot after SDS-PAGE of partially denatured samples"}
{"protein": "B1", "values": [{"measurement": "stoichiometry N", "result": 2}]}
